Source: US20220016215A1, “GIP RECEPTOR AGONIST PEPTIDE COMPOUNDS AND USES THEREOF” (TAKEDA PHAARMACEUTICAL COMPANY LIMITED, priority 2018, published 2022)
Changes are numbered by the printed parent chain. Starred links: 1 amine or outer side, 2 acyl side, 3 side chain; linkers in the order of their positions; H or OH if unused. Non-standard residues stand in square brackets, D forms with d. Groups on a side chain read outwards from the residue. No end group written: not given here. *: point of attachment. C15 diacid = O=C(O)CCCCCCCCCCCCCC(=O)*; γGlu = O=C(O)[C@H](CCC(=O)[*:2])N[*:1]; Palmitoyl = CCCCCCCCCCCCCCCC(=O)*; acyl = not defined here; Aib = CC(C)(N)C(=O)O

B1: Compound No. 26 (peptide)
peptide: Y[Aib]EGTFISDYSIALDKK([ethylene glycol-ethylene glycol-C15 diacid])HQQDFVNWLLAQRG-OH
B2: Compound No. 16 (peptide)
peptide: Y[Aib]EGTFTSDYSI[Aib]LDKIAQRAFVQWLIA[Aib]KGKKQEWKHQITQK(acyl)-NH2
modifications: reading uncertain; also: Lys43 acylated, acyl not given here
B3: Compound No. 5 (peptide)
peptide: Y[Aib]EGTFISDYSIAMDKK([γGlu-Palmitoyl])HQQDFVNWLLAQKGKKNDWKHNIIQ-OH
modifications: not fully specified; also: acyl given as C16DA in synthesis
B4: Compound No. 27 (peptide)
peptide: Y[Aib]EGTFISDYSIALDKK([ethylene glycol-ethylene glycol-C15 diacid])HQQDFVNWLLAQR-NH2
B5: Compound No. 14 (peptide)
peptide: Y[dA]EGTFISDYSIAMDKIHQQDFVNWLLAQKGKKNDWKHNIIQ-NH2
B6: Compound No. 8 (peptide)
peptide: YXEGTFISDYSIXXDKIHQQDFVNWLLAQKGKKNDWKHNITQ
modifications: 3,5-diBr-Tyr at 1; Aib at 2; Aib at 13; Nle at 14; C-terminal -OH
B7: Compound No. 9 (peptide)
peptide: B6 peptide with Y1F, S11X, X13A
modifications: Aib at 2; X* = 1-amino,1-cyclopentane carboxylic acid at 11; Nle at 14; C-terminal -OH

These molecules were tested against human GLP-1R (human, UniProt P43220 24-463) (assay: cell-based or functional assay). Conditions: not given.

Molecule	GLP1R EC50 nM (B) [nM]	GLP1R pEC50
B1	> 1000	< 9
B2	< 0.02	
B3		7
B4		6.02
B5	933	6.03
B6	118	6.9
B7	> 1000	< 6

What follows are molecules tested against T1, human GIPR (human, UniProt P48546 22-466) (assay: cell-based or functional assay). Conditions: not given.
T1 sequence (looked up): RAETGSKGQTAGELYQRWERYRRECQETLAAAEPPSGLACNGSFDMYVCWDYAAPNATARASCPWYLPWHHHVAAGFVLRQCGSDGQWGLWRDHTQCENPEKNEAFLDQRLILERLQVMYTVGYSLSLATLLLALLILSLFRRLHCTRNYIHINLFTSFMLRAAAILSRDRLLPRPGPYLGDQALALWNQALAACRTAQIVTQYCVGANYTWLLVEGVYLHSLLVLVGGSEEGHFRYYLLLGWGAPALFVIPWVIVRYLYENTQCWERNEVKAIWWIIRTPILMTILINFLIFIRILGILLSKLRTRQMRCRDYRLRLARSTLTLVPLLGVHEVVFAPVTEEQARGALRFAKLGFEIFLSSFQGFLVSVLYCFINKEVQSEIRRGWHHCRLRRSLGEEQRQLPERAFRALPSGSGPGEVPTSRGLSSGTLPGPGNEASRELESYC

Molecule	GIPR EC50 nM (A) [nM]	GIPR pEC50	Selectivity Ratio (B/A), GLP1R EC50 over GIPR EC50
B1	0.001		
B2	0.001	12	
B3	0.001	11.9	93300
B4	0.001		
B5	0.001	12.3	
B6		10.7	5600
B7	0.004	11.4	> 100000

What follows are molecules tested against T2, human GIPR (Homo sapiens, UniProt P48546) (assay: Agonist activity on human GIPR, CRE-luciferase reporter assay (increase in intracellular cAMP as indicator)). Conditions: GLP1R EC50 / GIPR EC50.
T2 construct: expressed in transfected cells
T2 sequence (P48546 22-466): T1 sequence (looked up)
Format: cell-based
Source text: The human GIPR gene having an identical sequence to Genebank Accession No. U39231 is cloned into a pMSRα-neo vector to prepare hGIPR/pMSRα-neo.
(2) Construction of Reporter Plasmid Expressing Cell
Luciferase reporter gene with a cAMP-responsive sequence located upstream is transferred to a CHO-K1 cell to construct a CRE-LUC/CHO-K1 cell.
(4) Transfer of Human GIPR Gene to CRE-LUC/CHO-K1 Cell and Obtaining of Expressing Cell
The plasmid hGIPR/pMSRα-neo obtained in (1) is transferred to the CRE-LUC/CHO-K1 cell obtained in (2) to obtain a transformant. Subsequently, the cell line inducing the luciferase expression, hGIPR/CRE-LUC/CHO-K1 cell, is selected from the obtained transformant by adding GIP.
25 μL each of the hGIPR/CRE-LUC/CHO-K1 cell is inoculated in a 384-well white plate (Corning) in such a way as to provide 5×10^3 cells/well and may be cultured in a HamF12 medium containing 10% fetal bovine serum, 100 U/mL penicillin, and 100 μg/mL streptomycin in a CO2 incubator at 37° C. overnight. 5 μL of a medium containing a test compound is added to the cells and incubated for 4 hours at the indicated concentration in a CO2 incubator at 37° C. Steady-Glo (Promega) is added in amounts of 30 μL and shaken under light shielding. Twenty minutes later, luciferase activity is measured using a plate reader Envision (PerkinElmer). The GIPR agonist activity is calculated with increase in intracellular cAMP concentration as the indicator when the luciferase activity in the presence of 10 nM of GIP was 100% and the luciferase activity in the case of adding DMSO instead of the test compound was 0%.

Molecule	Selectivity Ratio (B/A)
YAibEGTFISDYSIALDKIHQQ(Lys-(ethylene glycol)2-C15 diacid)FVNWLLAQRPSSGAPPPS-NH2 [Compound 29]	>100,000
YAibEGTFISDYSIELEK(Lys-(ethylene glycol)2-C15 diacid)AQRAFVEWLLAQGPSSGAPPPS-NH2 [Compound 23]	3364
YAibEGTFISDYSIALDKIHQQ(Lys-(ethylene glycol)2-C15 diacid)FVNWLLAQRG-OH [Compound 24]	82783
YAibEGTFISDYSIALDKIHQQDFVNWLLAQ(Lys-(ethylene glycol)2-C15 diacid)G-OH [Compound 31]	83090
YAibEGTFISDYS(Lys-(ethylene glycol)2-C15 diacid)ALDKIHQQDFVNWLLAQRG-OH [Compound 32]	83090
CC[C@H](C)[C@H](NC(=O)[C@H](CO)NC(=O)[C@H](Cc1ccc(O)cc1)NC(=O)[C@H](CC(=O)O)NC(=O)[C@H](CO)NC(=O)[C@@H](NC(=O)[C@H](Cc1ccccc1)NC(=O)[C@@H](NC(=O)CNC(=O)[C@H](CCC(=O)O)NC(=O)[C@@H](C)NC(=O)[C@@H](N)Cc1ccc(O)cc1)[C@@H](C)O)[C@@H](C)CC)C(=O)N[C@@H](C)C(=O)N[C@@H](CCSC)C(=O)N[C@@H](CC(=O)O)C(=O)N[C@@H](CCCCN)C(=O)N[C@H](C(=O)N[C@@H](Cc1c[nH]cn1)C(=O)N[C@@H](CCC(N)=O)C(=O)N[C@@H](CCC(N)=O)C(=O)N[C@@H](CC(=O)O)C(=O)N[C@@H](Cc1ccccc1)C(=O)N[C@H](C(=O)N[C@@H](CC(N)=O)C(=O)N[C@@H](Cc1c[nH]c2ccccc12)C(=O)N[C@@H](CC(C)C)C(=O)N[C@@H](CC(C)C)C(=O)N[C@@H](C)C(=O)N[C@@H](CCC(N)=O)C(=O)N[C@@H](CCCCN)C(=O)NCC(=O)N[C@@H](CCCCN)C(=O)N[C@@H](CCCCN)C(=O)N[C@@H](CC(N)=O)C(=O)N[C@@H](CC(=O)O)C(=O)N[C@@H](Cc1c[nH]c2ccccc12)C(=O)N[C@@H](CCCCN)C(=O)N[C@@H](Cc1c[nH]cn1)C(=O)N[C@@H](CC(N)=O)C(=O)N[C@H](C(=O)N[C@H](C(=O)N[C@@H](CCC(N)=O)C(N)=O)[C@@H](C)CC)[C@@H](C)CC)C(C)C)[C@@H](C)CC [Compound 14]	>100,000
YD-AlaEGTFISDYSIAMD(Lys-(OEG-gGlu)2-Oda)IHQQDFVNWLLAQKGKICNDWKHNIIQ-NH2 [Compound 13]	21,369
YAibEGTFISDYSIALDKIHQQ(Lys-(ethylene glycol)2-C15 diacid)FVNWLLAQR-NH2 [Compound 28]	>100,000

Same assay, conditions: hGIPR/CRE-LUC/CHO-K1 cells, 4 h incubation; read-out: GIPR EC50 nM (A)

Molecule	EC50 [nM]
CC[C@H](C)[C@H](NC(=O)[C@H](CO)NC(=O)[C@H](Cc1ccc(O)cc1)NC(=O)[C@H](CC(=O)O)NC(=O)[C@H](CO)NC(=O)[C@@H](NC(=O)[C@H](Cc1ccccc1)NC(=O)[C@@H](NC(=O)CNC(=O)[C@H](CCC(=O)O)NC(=O)[C@@H](C)NC(=O)[C@@H](N)Cc1ccc(O)cc1)[C@@H](C)O)[C@@H](C)CC)C(=O)N[C@@H](C)C(=O)N[C@@H](CCSC)C(=O)N[C@@H](CC(=O)O)C(=O)N[C@@H](CCCCN)C(=O)N[C@H](C(=O)N[C@@H](Cc1c[nH]cn1)C(=O)N[C@@H](CCC(N)=O)C(=O)N[C@@H](CCC(N)=O)C(=O)N[C@@H](CC(=O)O)C(=O)N[C@@H](Cc1ccccc1)C(=O)N[C@H](C(=O)N[C@@H](CC(N)=O)C(=O)N[C@@H](Cc1c[nH]c2ccccc12)C(=O)N[C@@H](CC(C)C)C(=O)N[C@@H](CC(C)C)C(=O)N[C@@H](C)C(=O)N[C@@H](CCC(N)=O)C(=O)N[C@@H](CCCCN)C(=O)NCC(=O)N[C@@H](CCCCN)C(=O)N[C@@H](CCCCN)C(=O)N[C@@H](CC(N)=O)C(=O)N[C@@H](CC(=O)O)C(=O)N[C@@H](Cc1c[nH]c2ccccc12)C(=O)N[C@@H](CCCCN)C(=O)N[C@@H](Cc1c[nH]cn1)C(=O)N[C@@H](CC(N)=O)C(=O)N[C@H](C(=O)N[C@H](C(=O)N[C@@H](CCC(N)=O)C(N)=O)[C@@H](C)CC)[C@@H](C)CC)C(C)C)[C@@H](C)CC [Compound 14]	0.001
